# Test results: patent US20220089784A1 (University of California, published 2022)
# T1: BoNT/C1 holotoxin (Clostridium botulinum, UniProt P18640 2-1291)
# T1 sequence: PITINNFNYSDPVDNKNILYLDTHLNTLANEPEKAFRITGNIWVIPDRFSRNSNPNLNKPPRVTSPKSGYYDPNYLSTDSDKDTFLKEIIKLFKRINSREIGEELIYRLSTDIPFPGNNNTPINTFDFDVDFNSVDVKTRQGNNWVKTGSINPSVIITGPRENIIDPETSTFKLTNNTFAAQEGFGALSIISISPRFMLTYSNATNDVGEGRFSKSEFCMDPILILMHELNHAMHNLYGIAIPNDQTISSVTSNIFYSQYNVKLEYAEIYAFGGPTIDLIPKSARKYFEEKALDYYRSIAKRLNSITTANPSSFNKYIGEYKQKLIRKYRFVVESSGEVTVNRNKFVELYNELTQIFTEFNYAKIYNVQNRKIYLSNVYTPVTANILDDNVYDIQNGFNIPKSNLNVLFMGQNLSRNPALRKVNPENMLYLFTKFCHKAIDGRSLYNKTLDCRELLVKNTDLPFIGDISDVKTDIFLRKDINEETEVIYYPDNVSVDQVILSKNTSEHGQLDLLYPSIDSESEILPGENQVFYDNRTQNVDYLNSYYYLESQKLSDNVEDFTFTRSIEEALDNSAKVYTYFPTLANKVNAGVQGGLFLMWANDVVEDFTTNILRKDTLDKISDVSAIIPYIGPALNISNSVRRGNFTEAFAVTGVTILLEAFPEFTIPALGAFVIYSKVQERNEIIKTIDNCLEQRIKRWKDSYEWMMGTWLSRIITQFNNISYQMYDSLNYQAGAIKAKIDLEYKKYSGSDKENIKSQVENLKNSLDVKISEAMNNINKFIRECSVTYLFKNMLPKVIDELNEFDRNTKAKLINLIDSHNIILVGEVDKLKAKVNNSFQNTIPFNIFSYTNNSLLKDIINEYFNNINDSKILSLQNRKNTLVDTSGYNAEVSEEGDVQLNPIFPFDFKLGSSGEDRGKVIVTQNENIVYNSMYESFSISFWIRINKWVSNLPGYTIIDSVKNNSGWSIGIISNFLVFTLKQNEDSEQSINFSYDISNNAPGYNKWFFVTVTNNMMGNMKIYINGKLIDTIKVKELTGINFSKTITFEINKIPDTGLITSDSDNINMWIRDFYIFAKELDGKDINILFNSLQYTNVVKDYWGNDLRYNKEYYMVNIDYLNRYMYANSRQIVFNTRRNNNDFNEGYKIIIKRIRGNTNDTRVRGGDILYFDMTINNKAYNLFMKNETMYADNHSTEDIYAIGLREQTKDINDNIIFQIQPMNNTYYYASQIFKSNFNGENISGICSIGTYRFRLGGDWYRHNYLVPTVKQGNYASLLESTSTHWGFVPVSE
# T2: BoNT/D (Clostridium botulinum, UniProt P19321 2-1276)
# T2 sequence: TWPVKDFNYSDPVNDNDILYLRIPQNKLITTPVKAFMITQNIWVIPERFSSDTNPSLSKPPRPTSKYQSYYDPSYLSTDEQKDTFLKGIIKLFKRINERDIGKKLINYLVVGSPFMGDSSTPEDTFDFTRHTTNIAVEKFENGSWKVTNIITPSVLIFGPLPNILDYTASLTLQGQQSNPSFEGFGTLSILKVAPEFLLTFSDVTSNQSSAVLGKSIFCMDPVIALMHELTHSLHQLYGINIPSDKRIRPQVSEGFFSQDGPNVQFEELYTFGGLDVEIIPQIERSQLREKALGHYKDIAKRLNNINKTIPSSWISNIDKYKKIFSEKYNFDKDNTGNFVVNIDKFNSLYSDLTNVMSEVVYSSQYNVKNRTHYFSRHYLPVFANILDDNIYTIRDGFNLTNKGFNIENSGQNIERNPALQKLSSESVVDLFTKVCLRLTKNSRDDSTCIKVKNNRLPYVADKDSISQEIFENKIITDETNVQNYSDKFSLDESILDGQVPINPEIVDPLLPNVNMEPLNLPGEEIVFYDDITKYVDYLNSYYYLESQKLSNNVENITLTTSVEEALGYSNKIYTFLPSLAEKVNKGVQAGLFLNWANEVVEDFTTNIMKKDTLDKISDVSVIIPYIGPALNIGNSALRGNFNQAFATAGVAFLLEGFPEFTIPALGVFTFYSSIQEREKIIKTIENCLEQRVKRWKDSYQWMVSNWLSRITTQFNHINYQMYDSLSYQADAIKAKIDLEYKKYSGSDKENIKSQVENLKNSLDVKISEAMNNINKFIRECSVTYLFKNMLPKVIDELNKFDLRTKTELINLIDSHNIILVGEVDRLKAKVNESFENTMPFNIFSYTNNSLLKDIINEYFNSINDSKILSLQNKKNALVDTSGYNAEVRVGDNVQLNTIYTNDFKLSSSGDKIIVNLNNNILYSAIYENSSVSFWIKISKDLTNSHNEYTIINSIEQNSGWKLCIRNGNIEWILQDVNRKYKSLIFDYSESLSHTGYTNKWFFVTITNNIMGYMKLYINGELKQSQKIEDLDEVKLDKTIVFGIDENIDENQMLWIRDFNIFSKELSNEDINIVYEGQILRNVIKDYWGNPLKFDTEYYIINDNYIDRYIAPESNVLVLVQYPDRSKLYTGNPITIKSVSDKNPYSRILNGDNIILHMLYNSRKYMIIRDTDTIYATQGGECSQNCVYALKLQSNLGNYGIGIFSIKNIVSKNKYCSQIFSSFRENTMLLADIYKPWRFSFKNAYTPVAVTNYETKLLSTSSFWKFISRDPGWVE
# Tests used:
# Experiment in all cases: yeast scFv FACS
# BoNT/C1 holotoxin [1] = biological target: T1, BoNT/C1 holotoxin
# BoNT/C1 holotoxin [2] = biological target: T1, BoNT/C1 holotoxin; remark: listed apart in the source
# BoNT/D = biological target: T2, BoNT/D
binder,measurement,setting,value
"4C10 scFv (scFv, V domains shown, human) VH: QVQLVESGGGAVQPGESLRLSCAASGFTFSGFDMHWVRQSPGRGLEWVARISHDGSMADYADSLRGRFTISRDNPKNTLYLHMNSLRVEDTALYYCAKDRWRSGSYPAFEKWGQGTMVTVSS VL: QSVPTQPASVSGSPGQSITISCTGTSSDVGAYNYVSWYQQHPGKAPKLMIYDVSDRPSGVSNRFSGSKSGNTASLTISGLQAEDEADYYCSSYTSSSTYVFGTGTKLTVL",Kd,BoNT/C1 holotoxin [1],0.39 nM
"1C8 scFv (scFv, V domains shown, human) VH: QVQLQQSGAEVKKPGASVKVSCKASAFTFNSNYIHWVRLAPGQGPEWMGIINPDGGRTTYAQKFQGRITMTTDTSTYAVYMELSSLRSEDTAVYYCARGATNIPYGMSVWGQGTTVTVSS VL: DIVMTQSPSSLSASVGDRVTITCRASQAIRNDLGWYQQEPGKAPKLLIYAASTLQSGVPSRFSGRGSGTDFTLTISSLQPEDFATYYCLQHNSYPLTFGGGTKVDIK",Kd,BoNT/C1 holotoxin [1],42 nM
"8DC6 scFv (scFv, V domains shown, human) VH: EVQMVESGGGVVQPGRSLRLSCAASGFTFTSYAMHWVRQAPGKGLEWVAMISNDESNTKYADSVKGRFTISRDNSKNTLFLQMNSLRAEDTAMYSCARGGYYTRPLAFDTWGPGTTVTVSS VL: DVVMTQSPSSVSASVGDRVTITCRASQGISSYLAWYQQKPGKVPKLLIYAASSLQRGVPSRFSGSGSGTDFTLTISRLQPEDVATYYCQKYNSAPLTFGGGTKVEIK",binding result,BoNT/C1 holotoxin [2],no binding (tested: ~1 µM)
"8DC8 scFv (scFv, V domains shown, human) VH: QVQLQQSGPGLVKPSETLSLTCTVSGGSISSAGYSWSWIRQSPGKGLECLGYIYQTGSTFYNLSLKGRVTMSLDRSKNQISLRLTSVVAADTAVYYCARVVGVYPGWFDSWGQGTLVTVSS VL: DIVMTQSPSTLSASVGDRVTITCRASQSINIWMAWYQQKPGKAPKLLVYKASSLESGVPSRFSGSGSGTEFTLTISSLQPDDFATYYCQQYNSYGTFGKGTKVEIK",binding result,BoNT/C1 holotoxin [2],no binding (tested: ~1 µM)
"8DC8.3 scFv (scFv, V domains shown, human) VH: QVQLQQSGPGLVKPSETLSLTCTVSGGSISSAGYSWSWIRQSPGKGLECLGYIYQTGSTFYNLSLKGRVTMSLDRSKNQISLRLTSVVAADTAVYYCARVVGVYPGWFDSWGQGTLVTVSS VL: DIVMTQSPSSLSASVGDRVTITCRASQSVSRWLAWYQQKPGKPPKLLIYEASSLESGVPSRFSGSGSGTDFTLTITSLQPEDFATYYCQQYENLPPSTFGGGTKLEIK",binding result,BoNT/C1 holotoxin [2],no binding (tested: ~1 µM)
"1C1 scFv (scFv, V domains shown, human) VH: QVQLQESGSGLVKPSQSLSLTCAVSGGSISSGDYSWSWIRQPPGEGLEWIGYIFPRGSTYYNPSLRSRVTMSVDRSKNQFSLSLNSVTAADTAVYYCARTKMGAAEGVFDYWGQGTLVTVSS VL: DIVMTQSPSTLSASVGDRVTITCRASQSVSTWLAWYQQKPGKAPNLLISEASNLESGVPSRFSGSGSGTEFTLTISSLQPDDFAIYYCQQYNSYVWTFGQGTKLEIK",Kd,BoNT/C1 holotoxin [1],0.5 nM
same,binding result,BoNT/D,no binding (tested: ~1 µM)
"1C1.1 scFv (scFv, V domains shown, human) VH: QVQLQESGSGLVKPSQSLSLTCAVSGGSISSGDYSWSWIRQPPGEGLEWIGYIFPRGSTYYNPSLRSRVTMSVDRSKNQFSLSLNSVTAADTAVYYCARTKMGAAEGVFDYWGQGTLVTVSS VL: EIVLTQSPSSLPASVGDRVTITCRASQSIGTYLNWYQHKPGSAPKLLINAASSLQSGVPSRFSGSGSGTDFTLTISSLQPDDFATYYCQQYNSYTWTFGQGTKVGIK",Kd,BoNT/C1 holotoxin [1],0.15 nM
same,binding result,BoNT/D,no binding (tested: ~1 µM)
"8DC15 scFv (scFv, V domains shown, human) VH: QVQLQESGPGLLKPSQTLSLTCSVSGGSMITGGYYWTWVRQLPGKGLEWIGHVYYTGKTYYNPSLNGRFTIAIDTSKNQFSLNLNSVTATDTAVFYCARAIWGGWYFDLWGQGTLVTVSS VL: DIQMTQSPSSLSASVGDRITITCRASRDIRDDLAWYQQKPGKAPKLLIYAASSLQSGVPSRFSGSGSGTEFTLTISSLQPEDFATYYCQQANSFPLTFGGGTKVDIK",binding result,BoNT/D,no binding (tested: ~1 µM)
"1C2 scFv (scFv, V domains shown, human) VH: QVQLQQSGAEVRKSGASVKVSCKTSGYTFTTYYIHWVRQAPGQGLEWMGMIDPRGGSASYAQRFQGRVTMTRDTSTTTVFLALNSLESNDTAVYYCARGGLPYQQLPLWGQGTLVTVSS VL: not shown",Kd,BoNT/C1 holotoxin [1],24 nM
same,binding result,BoNT/D,no binding (tested: ~1 µM)
"87C1 scFv (scFv, V domains shown, human) VH: QVQLQQSGGGVVQPGRSLRLSCAGSGFTLSTYGMHWVRQAPGKGLEWVAVISNDGSKEYYADSVKGRFAISRDNSKNTLSLQMNGLRAEDTAIYYCAKAIKSYSTIGGACNLWGQGTMVTVSS VL: DIVMTQSPSFLSASVGDRVTITCRASQSISSYLNWYQQKPGKAPKLLIYAASSLQSGVPSRFSGSRSGTYFTLTISSLQPEDFATYYCQQSYITWTFGQGTRLEIK",Kd,BoNT/C1 holotoxin [1],2 nM
same,binding result,BoNT/D,no binding (tested: ~1 µM)
"4C2 scFv (scFv, V domains shown, human) VH: EVQLVQSGGNLVQPGGSLRLSCTASGFIFSNHWMQWVRQIPGKGLMWVSRINDSGRSTSYAGFVKGRFTMSRDNAKNTLFLQMNSLTAEDTGVYYCVRETWEVLGHLGYEVLDHWGLGTLVTVSS VL: DIVMTQSPSSLSASVGDRVTITCRASQGISSYLAWYQQKPGKAPKLLIYAASTLQSGVPSRFSGSGSGTEFTLTISSLQPEDFATYYCQQLNSYPRTFGQGTKVDIK",Kd,BoNT/C1 holotoxin [1],0.19 nM
"8DC3.1 scFv (scFv, V domains shown, human) VH: QVQLVQSRGGLVKPGGSLRLSCAASGFTFSSHSMNWVRQAPGKGLEWVSSISSSSSYIYYADSVKGRFTISRDNSKNSLYLQLNSLRAEDTAVYYCARDQGGGSVVGTNWFDPWGQGTLVTVSS VL: SALTQPASVSGSPGQSVTISCTGTSSDVGGYNYVSWYQQHPGKAPKLMIYDVSKRPSGVPDRFSGSKSGNTASLTISGLQAEDEADYYCCSYAGRYTYVFGTGTKVTVL",binding result,BoNT/C1 holotoxin [2],no binding (tested: ~1 µM)
same,binding result,BoNT/D,binds
"8D2 scFv (scFv, V domains shown, human) VH: QVQLVQSGAEVKKPGESLKISCKGSGYSFTSYWIGWVRQMPGKGLEWMGIIYPGDSDTRYSPSFQGQVTISADKSISTAYLQWSSLKASDTAMYYCVSYSSLDAFDIWGQGTMVTVSS VL: EIVLTQSPSSLSASVGDRVTITCQASQDISNSLCWYQQKPGKAPKLLIYDASNLETGVPSRFSGSGSGTDFIFTISSLQPEDIATYYCQQYDNLLRVFGGGTKLEIK",binding result,BoNT/C1 holotoxin [2],no binding (tested: ~1 µM)
